Experimental data reported in patent publication US11278600B2, “Human alpha-galactosidase variants” (Codexis, Inc., priority 2014, dated 2022).

Assays:
Assay type in all cases: biochemical
[1] = HTP-analysis of supernatants pretreated with base (MUGal hydrolysis); conditions: challenge at pH 8.2; activity of the variant/activity of Rd3BB (SEQ ID NO: 13); yeast culture supernatant
How it was run: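 GLA variants secreted from yeast INVSc1; culture supernatants pre-incubated with McIlvaine buffer pH 7.0–8.2 or 200 mM bicarbonate pH 9.1–9.7 at 37° C. for 1–18 h. Residual activity: MUGal (4 mM stock) hydrolysis at pH 4.3–4.8, 37° C., 30–180 min, carbonate quench; fluorescence Ex 355/Em 448 nm.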

[2] = HTP-analysis of yeast culture supernatants, no challenge (MUGal hydrolysis); conditions: activity of the variant/activity of Rd3BB (SEQ ID NO: 13), yeast culture supernatant
How it was run: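 GLA variants expressed in yeast INVSc1, secreted into SD-Ura broth over 66-84 h at 30° C; clarified supernatants tested without challenge. Supernatant mixed with McIlvaine buffer pH 4.8 and 2 mM MUGal (citrate/KCl, pH 4.6), 37° C for 30-180 min, carbonate-quenched, fluorescence Ex 355/Em 448 nm.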

[3] = HTP-analysis of supernatants pretreated with acid (MUGal hydrolysis); conditions: challenge at pH 4.0; activity of the variant/activity of Rd3BB (SEQ ID NO: 13); yeast culture supernatant
How it was run: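 Yeast INVSc1 supernatant, GLA variants; acid challenge: McIlvaine pH 3.3-4.3, 37° C., 1-3 h. Assay: MUGal in McIlvaine pH 4.8 plus citrate pH 4.3, 37° C., 30-180 min, Na2CO3 stop, Ex 355/Em 448 nm.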

[4] = HTP-analysis of supernatants pretreated with bovine serum (MUGal hydrolysis); conditions: activity of the variant/activity of Rd3BB (SEQ ID NO: 13), yeast culture supernatant
How it was run: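 Yeast INVSc1 culture supernatants containing secreted GLA variants were mixed with bovine serum (20:80) and held 1 h at 37° C. Serum-treated samples then reacted with MUGal (4 mM stock) in citrate/McIlvaine buffer (pH 4.3/4.8) for 180 min at 37° C., were quenched with sodium carbonate, and read by fluorescence (Ex 355, Em 448 nm).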

B1: 351 (protein)
chain: LDNGLARTPTMGWLHWERFMCNLDCQEEPDSCISEKLFMEMAERMVSEGWKDAGYEYLCIDDCWMAPQRDSEGRLQADPQRFPHGIRQLANYVHSKGLKFGIYADVGNKTCAGFPGSFGYYDIDAQTFADWGVDLLKFDGCYCDSLENLADGYKHMSLALNRTGRSIVYSCEWPLYMWPFQKPNYTEIRQYCNHWRNFADIDDSWASVKSILDWTSFNQETIVDVAGPGGWNDPDMLVIGNFGLSWNQQVTQMALWAIMAAPLFMSNDLRHISPQAKALLQDKDVIAINQDPLGKQGYQLRKGDNFEVWERPLSGLAWAVAIINRQEIGGPRSYTIAVASLGKGVACNPACFITQLLPVKRKLGFYNWTSRLKSHVNPTGTVLLQLENTMQMSLKDLL
modifications: Synthetic Polypeptide sequence of Variant No. 351 of mature Human GLA
[1]
  Relative Activity of GLA Variants After Challenge at pH 8.2: ++ (++ = >1.5 to 2.5 relative activity over Rd3BB (SEQ ID NO: 13))
[2]
  Relative Activity of GLA Variants After No Challenge (NC): + (+ = 0.5 to 1.5 relative activity over Rd3BB (SEQ ID NO: 13))
[3]
  Relative Activity of GLA Variants After Challenge at pH 4.0: + (+ = 0.5 to 1.5 relative activity over Rd3BB (SEQ ID NO: 13))
[4]
  Relative Activity of GLA Variants After Challenge with Serum: + (+ = 0.5 to 1.5 relative activity over Rd3BB (SEQ ID NO: 13))

B2: 352 (protein)
chain: LDNGLARTPTMGWLHWERFMCNLDCQEEPDSCISEKLFMEMAERMVSEGWKDAGYEYLCIDDCWMAPQRDSEGRLQADPQRFPHGIRQLANYVHSKGLKFGIYADVGNKTCAGFPGSFGYYDIDAQTFADWGVDLLKFDGCYCDSLENLADGYKHMSLALNRTGRSIVYSCEWPLYMWPFQKPNYTEIRQYCNHWRNFADIDDSWASIKSILDWTSFNQEKIVDVAGPGGWNDPDMLVIGNFGLSWNQQVTQMALWAIMAAPLFMSNDLRHISPQAKALLQDKDVIAINQDPLGKQGYQLRKGDNFEVWERPLSGLAWAVAIINRQEIGGPRSYTIAVASLGKGVACNPACFITQLLPVKRKLGFYNWTSRLKSHVNPTGTVLLQLENTMQMSLKDLL
modifications: Synthetic Polypeptide sequence of Variant No. 352 of mature Human GLA
[1]
  Relative Activity of GLA Variants After Challenge at pH 8.2: + (+ = 0.5 to 1.5 relative activity over Rd3BB (SEQ ID NO: 13))
[2]
  Relative Activity of GLA Variants After No Challenge (NC): + (+ = 0.5 to 1.5 relative activity over Rd3BB (SEQ ID NO: 13))
[3]
  Relative Activity of GLA Variants After Challenge at pH 4.0: + (+ = 0.5 to 1.5 relative activity over Rd3BB (SEQ ID NO: 13))
[4]
  Relative Activity of GLA Variants After Challenge with Serum: + (+ = 0.5 to 1.5 relative activity over Rd3BB (SEQ ID NO: 13))

B3: 353 (protein)
chain: LDNGLARTPTMGWLHWERFMCNLDCQEEPDSCISEKLFMEMAERMVSEGWKDAGYEYLCIDDCWMAPQRDSEGRLQADPQRFPHGIRQLANYVHSKGLKFGIYADVGNKTCAGFPGSFGYYDIDAQTFADWGVDLLKFDGCYCDSLENLADGYKHMSLALNRTGRSIVYSCEWPLYMWPFQKPNYTEIRQYCNHWRNFADIDDSWASIKSILDWTSFNQETIVDVAGPGGWNDPDMLVIGNFGLSWNQQVTQMALWAIMAAPLFMSNDLRHISPQAKALLQDKDVIAINQDPLGKQGYQLRQGDNFEVWERPLSGLAWAVAIINRQEIGGPRSYTIAVASLGKGVACNPACFITQLLPVKRKLGLYNWTSRLKSHVNPTGTVLLQLENTMQMSLKDLL
modifications: Synthetic Polypeptide sequence of Variant No. 353 of mature Human GLA
[1]
  Relative Activity of GLA Variants After Challenge at pH 8.2: − (− = <0.5 relative activity to Rd3BB (SEQ ID NO: 13))
[2]
  Relative Activity of GLA Variants After No Challenge (NC): − (− = <0.5 relative activity to Rd3BB (SEQ ID NO: 13))
[3]
  Relative Activity of GLA Variants After Challenge at pH 4.0: − (− = <0.5 relative activity to Rd3BB (SEQ ID NO: 13))
[4]
  Relative Activity of GLA Variants After Challenge with Serum: + (+ = 0.5 to 1.5 relative activity over Rd3BB (SEQ ID NO: 13))
